Source: patent US20210032343A1 (published 2021)

Legend:
[1] = molecular target: T1, recombinant human PD-1-Fc (human, UniProt Q15116 25-167); assay: competition ELISA; blocking PD-1/PD-L1
[2] = molecular target: recombinant human PD-1 (product No. 10377-H08H, Beijing Yiqiao Shenzhou) (human, UniProt Q15116 25-167); assay: ELISA
[3] = molecular target: T1, recombinant human PD-1-Fc; assay: competition ELISA; blocking PD-1/PD-L2

T1 sequence (Q15116 25-167): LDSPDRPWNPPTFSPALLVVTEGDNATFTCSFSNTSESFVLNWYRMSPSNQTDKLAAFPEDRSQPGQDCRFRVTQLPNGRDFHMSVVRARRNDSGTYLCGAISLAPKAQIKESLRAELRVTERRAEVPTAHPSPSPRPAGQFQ
recombinant human PD-1 (product No. 10377-H08H, Beijing Yiqiao Shenzhou), sequence (Q15116 25-167): as above

- IC50 [1]: 2.71 nM
- EC50 [2]: 0.18 nM
- IC50 [3]: 2.89 nM
B1: PD-1 monoclonal antibody (antibody, V domains shown)
VH: QVQLVQSGAEVKKPGSSVKVSCKASGGTFSSTAISWVRQAPGQGLEWMGGIWPSFGTASYAQKFQGRVTITADESTSTAYMELSSLRSEDTAVYYCARAEYSSTGIFDYWGQGTLVTVSS
VL: DIQMTQSPSSVSASVGDRVTITCRASQGISSWLAWYQQKPGKAPKLLISAASSLQSGVPSRFSGSGSGTDFTLTISSLQPEDFATYYCQQANHLPFTFGGGTKVEIK
